Measurements: PMC10154332, “Mirror proteorhodopsins” (Communications Chemistry, 2023)
Values belong to the molecule of their own block, whether it stands above or below them.

Experiments:
[1] = biological target: Sphingomonas paucimobilis rhodopsin (SpaR) (Sphingomonas paucimobilis); test: SAXS; solubilized SpaR ~5 mg/ml in 100 mM NaCl, 0.5 mM EDTA, 0.01% NaN3, 20 mM TRIS(HCl) pH 7.2, 0.05% DDM; profile 0.04-0.26 1/A fitted with MEMPROT (detergent corona), trimer against monomer model
[2] = biological target: Sphingomonas paucimobilis rhodopsin (SpaR) (Sphingomonas paucimobilis); test: SEC; DDM-solubilized SpaR at five pH values (4.4, 5.4, 6.4, 7.4, 8.4); at pH 4.4 only a single trimer peak, further peaks of higher molecular weight with increasing pH
[3] = biological target: Sphingomonas paucimobilis rhodopsin (SpaR) (Sphingomonas paucimobilis); test: crystal structure; in meso (monoolein) crystals, 0.78 M NaH2PO4/K2HPO4 pH 5.2, 22 °C; space group C2; 2.8 Å
[4] = biological target: T1, SpaR (Sphingomonas paucimobilis rhodopsin) (Sphingomonas paucimobilis, UniProt A0A411LJN5); test: X-ray crystallography, in meso crystals, […] A; assay type: binding; details: covalent Schiff base to K211; crystals at pH 5.2
T1 construct: gene HKX06_19670; E. coli C41(DE3) codon-optimised gene in pET32b (NdeI/XhoI), C-terminal His tag, DDM-solubilised, Ni-NTA and SEC; trimer
T1 sequence (A0A411LJN5 1-237): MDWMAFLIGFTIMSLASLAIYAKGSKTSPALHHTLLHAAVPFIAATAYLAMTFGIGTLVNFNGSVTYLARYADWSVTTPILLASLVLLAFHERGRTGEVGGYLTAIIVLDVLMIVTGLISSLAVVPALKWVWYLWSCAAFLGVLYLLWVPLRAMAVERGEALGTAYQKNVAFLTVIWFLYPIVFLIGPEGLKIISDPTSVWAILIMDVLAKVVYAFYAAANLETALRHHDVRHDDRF

Asp73 (position 73, …) = test: UV-vis; details: 150 mM NaCl, 50 mM MES, Dark (ground) state, DDM-solubilised
[5] = biological target: Asp97 (UniProt position 97, …); details: cited from earlier work

stoichiometry N [1]: 3
stoichiometry N [2]: 3
stoichiometry N [3]: 3
Molecule: Sphingomonas paucimobilis rhodopsin (SpaR) (natural protein)

Molecule: CC1=C(/C=C/C(C)=C/C=C/C(C)=C/C=O)C(C)(C)CCC1 [retinal]
X-ray crystallography, in meso crystals, 2.8 A [4]: the retinal co-factor is covalently bound to the K211 residue of the helix G

B1: SpaR (Sphingomonas paucimobilis rhodopsin, mirror proteorhodopsin) (Sphingomonas paucimobilis) (protein)
chain: T1 sequence (A0A411LJN5 1-237)
pKa (Asp73 (position 73, …); 5 mM ZnCl2, in the presence of 5 mM Zn2+): 0.98±0.01
pKa (Asp73 (position 73, …); no Zn2+): 1.03±0.01

B2: Green proteorhodopsin (PR) (uncultured marine gamma proteobacterium (printed as 'Gamma-proteobacterium')) (protein)
chain: MKLLLILGSVIALPTFAAGGGDLDASDYTGVSFWLVTAALLASTVFFFVERDRVSAKWKTSLTVSGLVTGIAFWHYMYMRGVWIETGDSPTVFRYIDWLLTVPLLICEFYLILAAATNVAGSLFKKLLVGSLVMLVFGYMGEAGIMAAWPAFIIGCLAWVYMIYELWAGEGKSACNTASPAVQSAYNTMMYIIIFGWAIYPVGYFTGYLMGDGGSALNLNLIYNLADFVNKILFGLIIWNVAVKESSNA
pKa [5]: 7.68
